In the nanobody polyreactivity screen of Harvey et al. (2022):

Assay: yeast display, Sf9 membrane polyspecificity reagent, FACS + sequencing; frameworks hold sequencing errors
Procedure, shortened: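 Synthetic nanobody libraries on Saccharomyces cerevisiae BJ5465 were galactose-induced for 36–48 hours, stained 1 hour at 4 °C with 10% biotinylated, detergent-solubilized Sf9 membrane reagent and enriched on streptavidin microbeads. FACS then separated cells into low and high (top ~1%) gates by anti-HA (expression) and streptavidin (reagent binding) fluorescence. Genes were colony-PCR amplified, MiSeq 2 × 250 sequenced and CDR-length filtered. A clone's polyreactivity label is that of its gate of origin.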

Sequence	polyreactivity (PSR sort gate)
QVQLVESGGGLVQAGGSLSLSCAASGYTFPYYTMGWYRQAPGKERELVATITRRGDSTYYADSVKGRFTISRDNAKNTVYLQMNSLKPEDTAVYYCNTASYGRHQFRKSSKMDYWGQGTQVTVSS	high polyreactivity
QVQLVESGGRLVQAGGSLRLSCAASGSIINVNTMGWYRQAPGKERELVAAISSGGRTYYADSVKGRFTISRDNAKNTVYLQMNSLKPEDTAVYYCNTVLGVYDYDYWGQGTQVTVSS	low polyreactivity
QVQLVESGGGLVQAGGSLRLSCAASGFTFWLYAMGWYRQATGKEREFVAAISTSGGSTYADSVKGRFTISRDNAKNTVYLQMNSLKPEDTAVYYCNAGYLLYYDYHLFYWGQGTQVTVSS	low polyreactivity
QVQLVESGGGFVQAGGSLRLSCAASGFTFKAYAMGLYRQAPGKERELVATINRSGTGTYYADSVKGRFTISRDYAKNTVYLLMNSLKPEDTAVYYCNKRSHHNYYTYDYWGQGTQVTVSS	high polyreactivity
QVQLVESGGGLVQAGGSLRLSCAASGIIFDDYAMGWYRQAPGKERELVAAIRSGVSTNYADSVKGRFTISRDNAKNTVYLQMNSLKPEDTAVYYGAARNTAPYFTEYDYWGQGTQVTVSS	low polyreactivity
QVQLVESGGGLVQAGGSLRLSCAASGSTLLANAMGWYRQAPGKERELVAASTYYADSVKGRFTISRDNAKNTVYLQMNSLKPEDTAVYYCAADTVRGGPDGIEYNYWGQGTQVTVSS	low polyreactivity
QVQLVESGGGLVQAGGSLLLSCAASGRTFYVYAMGWYRQAPGKERELVAAITSGGRTYYADSVKGRFTISRDNAKNTVYLQMNRLKPEDTAVYYCNARRTSRSYSFNYWGQGTQVTVSS	high polyreactivity
QVQLVESGGGLVQAGGSLRLSCAASGLTFGSYTMGWYRQAPGRERDLVAAITSDGSTNYADSVKGRFTISRDNAKNTVYLQMNSLKPEDTAVYYCNKGETLYGSVPYDYWGQGTQVTVSS	high polyreactivity
QVQLEESGGGLVQAGGSLRLSCAASGRTFGWNVMGWYRQAPGKERELVAAISGGGTSTYYADSVKGRFTISRDNAKNTVYLQMNSLNPEDTAVYYCNAYYPGSYYPRSGRYDYWGQGTQVTVSS	high polyreactivity
QVPLVESGGGLVQAGVSLRLSCAASGSIFYLYAMGWYRQAPGKERELVAAISRSGASTYYADSVKGRFTISRDNAKNTVYLQMNSQKPEDTAVYYCAAYKIWGRVRYDYWGQGTQVTVSS	low polyreactivity
QVQLVESGGRLVQAGGSLRLSCAASGHIFFYYTMGRYRPGPGKERELVAGITIGGSTNYADSVKGRFTISRDNAKNTVYLLMNSLKPADTAVYYCNVVKYVYISSYWEYYYWGQGAQVTVSS	low polyreactivity
QVQLEESGGGLVQAGGSLRLSCAASGSIFTNAMGWYRQAPGKERELVAAISSSGGSTYYADSVKGRFTISRDNAKNTVYLQMNSLKPEDTAVYYCAADHYGGRDYWGQGTQVTVSS	low polyreactivity
QVQLQESGRRPGAAGGSPRMSCAASGNIFWVAVMGRYRQAPGKERELVASIGFGCTTYYADSVKCRFTISRDNAKNTVYLQMISLKPEDTAVYYCAAPHYDWGELDYWGQGTQVPVSS	low polyreactivity
QVQLVESGGGLVQAGGSLRLSCAASGRIYGAYAMGWYRQAPGKEMEMVAAITSAGSTLYADSVKGRFTISRDNAMNTVYLQMNSLNPEDTAVYYCAADGIARAYVLFDAYDFLYDYWGQGTQVTVSS	low polyreactivity
QVQLVESGGGLVQAGGSLRLSCAASGRIFSVNAMGWYRQAPGKERELVAAITSGGRTNYADSVKGRFTISRDNAKNTFYLQMNSLKPEDTAVYYCAAPYLKGGEDDYWGQGTQVTVSS	high polyreactivity
QVQLVESGGGLVQAGGSLRLSCAASGSIFSIYAMGWYRQAPGKERDFVASITVTDGSTYYADSVKGRFTISRDIAKNTVYLQMNSLKPEDTAVYYCFADGWYALYEWLAVSGYYWGQGTQVTVST	low polyreactivity
QVQLVESGGGLVQAGGSLRLSCAASGSIFSANAMGWYRQAPGKERELVASITGDGSTNYADSVNGRFTISRDNAKNTVYLQMNSLKPEDTAVYYCAVDRGRRGMDYWGQGTQVTVSS	low polyreactivity
QVQLVESGGGLVQAGGSLRLSCAASGIIFRPYTMGWYRQAPGKERELVAAISQSGGRTYYADSVKGRFTISRDNAKNTVYLQMNSLKPEDTAVYYCNVLGSYSYYGGNDLWYYYWGQGTQVTVSS	high polyreactivity
QVQLVESGGGLVQAGGSLRLSCAASGRIFWDNAMGWYRQAPGKVRELVAVMNSGDSTNYADSVKGRFTISRDNAKNTVYLQMNSLKPEDTAVYYCATDFIGVIYDYWGQGTQVTVSS	low polyreactivity
QVQHVESGGGLVQAGGSLRLSCDASGRIFAWYAMGWYRHAPGKERELVASISSGGRTNYADSVKGRFTISRDIAKNTVYLQMNSLKPVDTAVYYCNVAIVWPWYGRWFQEYDYWGQGTQVTVSS	low polyreactivity
QVQLVESGGGLVQAGGSLRLSCAASGSIFWRNAMGWYRQAPGKERALVAAISGNGGTTYYADSVKGRFTISRDYAKNTVYLQINSLKPEDTAVYYCAKVGKTYRTYEDWGQGTQVTVSS	high polyreactivity
QVQLVESGGGLVQAGGSLRLSCAASGRTFGTYAIVWYRPAPGKERELVAAITRRGGSTYYADSVKGRFTISRDNAKNTVYLQMNSLKPEDTAVYYCAARWFRYVPYSFPYLYKYDYWGQGTQVTVSS	low polyreactivity

Sequence	polyreactivity (PSR sort gate)
QVQLVESGGGLVQAGGSLRLSCAASGRISGWNAMGWYRQAPGKERELVAASTWSDGSTYYADSVKGRFTISRDNAKNTVYLQMNSLKPEDTAVYYCAAEYGWYAGDPYYGYDYYWGQGTQVTVSS	high polyreactivity
QVQLLESGGGLVQAGASLRLSCAASGSIFLPNAMGWSRQAPGKERELVAAISWSGGSTYADSVKGRITISRDNAKNTVYLQMNILKPEDTAFYFCAADDGFTPRDLYVCYDYWGQGTQVTVSS	low polyreactivity
QVQHVESGGGLVQAGGSLRLSCAASGIIFTTYAMGWYRQAPGKERELVAAISRSGSTYYADSVKGRFTISRDNAKNTVYLQMNSLKPEDTAVYYCASGRWRWRGYDYYWGQGSQVTVSS	high polyreactivity
QVQLVESGGGLVQAGGSLRLSCAASGFTFGPYAMGWYRQAPGKERELVAAIRSGGSTNYADSVKGRFTISRDNAKNTVYLQMNSLKPEDTAVYYCAAGYRRGWVTMGYWGQGTQVTVSS	high polyreactivity
QVQVVESGGGLLQAGVSLRLSCAASGRTFSKYDMGLYRQPPGKERELVAAITRTGSSTYYADSVKGRFTISRDNAKNTVYLQMNSLKPEDTAVYYCAADRYLRYSGSSSDYGYWVQGTQVTVSS	low polyreactivity
QVQLVESGGGLVQAGGSLRLSCAASGYIFWENAMGWYRQAPGKERELVAAITVSGGGTYYADSVKGRFTISRDNAKNSVYLQMNSLKPEVTAVYYCNVYDKAPAYDYWGQGTQVTVSS	low polyreactivity
QVQLVESGGGLVQAGGSLRLSCAASGYTFTHYAMGWYRQAPGKERELVAGITWSGGSTYYADSVKGRLTISRDNAKNTVYLQMNSLKPEDTSVYYCAAKYYWYYSYSGIPLFDYWGQGTQVTVSS	low polyreactivity
QVQLVESGGGLVQAGGSLRLSCAASGLTFPKYAMGWYRQAPGKERELVAAITQRGGSTYYADSVKGRFTISRDNAKNTVYLQMNSLNPEDTAVYYSNARRRDYNNRREFDYWGQGTQVTVSS	high polyreactivity
QVQLVESGGGLVQAGCRLRLSCAASGRTSPRYTMGWYRQAHGKERELVASITVSDGSTYYADSVKGRFTISRDNAKNTVYLQMNSLKPEDTAVYYCARPGYWYRYISTSKLHYYWGQGTQETVSS	low polyreactivity
QVQLVESGGGLVQAGGSLRLSCSASGRIFKRYAMGWYRQSPGKERELVAAFTRGGSTNYADSVKGRFTISRDNAKNTVYLQMNSLKPEDTAVYYCNRYGGTRYWGRGTQVTVSS	high polyreactivity
QVQLVESGGGLVQAGGSLRLSCAASGRTFRSNVMGWYRPAPGNERELVASITWSGGTTYYADSVKGRFTISRDNAKNTVYLQMNSLKPEDTAVYYCNAADERSQGWVGYDNWGQCTQVTVSS	low polyreactivity
QVQLGESGGGLVQAGGSLRLSCAASGSTFVWYAMGWYRQAPGKERELVANISGSGGSTYYADSVKGRFTISRDNAKNTVYLQMNSLKPEDNAVYYCAAQRQWRTQYDDDYWGQGTQVTVSS	low polyreactivity
QVQLVESGGGLVQAGGSLRLSCAASGSIFSYYAMGWYRQAPGKERELVASISWNGTSTYYADSVKGRFTISRDNAKNTVDLQMNSLKPEDTADYYCNVRFNYRGTYDYWGQGTQVTVSS	low polyreactivity
QVQLVESGGGLVQAGGSLRLSCAASGLIFGPNAMGWYRQAPGKERELVAAITKSGDSTYYADSVKGRFTISRDNAKNTVYFQMNSLKPEDTAVYYCAADTTTGLYDYWGQGTQVTVSS	low polyreactivity
QVQLVESGGGLVQAGGSLRLSCAASGRTIVFNAMGWYRQAPGKERELVAAITKNGGSTYYADSVKGRFTISRDNAKNTVYLQMNSLKPEDTAVYYCAVRRGYPFFYWGQGTQVTVSS	low polyreactivity
QVQLVESGGGFVQAGGSLRLSCAASGSIFDYYTMGWYRQAPGKERELVATIRSGDSTNYADSVKGRFTISRDNAKNTVYLPMNSLKPEDPAVYYCAADYGYQDDYWGQGTQVTVSS	low polyreactivity
QVQLVESGGGLVQAGGSLRLSCASSGRIFPWNTMGWYRQAPGKERELVAGINNGDRTYYADSVKGRFTISRDNAKNRVYLQMNSLKPDETAVYYCARDDNPIYSGVTYDSWGQGTQVSVSS	low polyreactivity
QVQLVESGGGLVQAGGSLRLSCAASGFIIYSYAMGWYRQAPGKERELVAVISSRGGTTYYADSVKGRFTISRDNAKNTVYLQMNSLKPEDTAVYSCNVDRLGQRSDYWGQGTQVTVSS	low polyreactivity
QVQLVESGGGLVQAGGSLRLICAASGYIFDHYAMGWYRQAPGKERELVAAINWSGGRTYYADSVKGRFTISRDNAKNTVYLQMNSLKPEDTAVYYCAAGGVSENDYWGQGTQVTVSS	high polyreactivity
QVQLVDSGGGLVQAGGSLRLSCAASGGTFDWYTMGWYRQAPGKERELVADITSGGSTYYADSVKGRFTISRDNAKNTVYLQMNSLKPEDTAVCYCATTVYSTSGYPYDYWGQGTQVTVSS	high polyreactivity
QVQLVESGGGLVHAGGSIRLSCAASGRIFDSNAMGRYRQAPGKEREVVAAITYSGGGTFYADSVKGRFTSSRDNAKNTVYLQMNCLKPEDTAVYYCNKLPHYFGPVYWFKGDDGYWGQGTQVTVTS	high polyreactivity
